T1: human FcγRIIb expressed on the cell surface (human, UniProt P31994 43-310)
T1 sequence (looked up): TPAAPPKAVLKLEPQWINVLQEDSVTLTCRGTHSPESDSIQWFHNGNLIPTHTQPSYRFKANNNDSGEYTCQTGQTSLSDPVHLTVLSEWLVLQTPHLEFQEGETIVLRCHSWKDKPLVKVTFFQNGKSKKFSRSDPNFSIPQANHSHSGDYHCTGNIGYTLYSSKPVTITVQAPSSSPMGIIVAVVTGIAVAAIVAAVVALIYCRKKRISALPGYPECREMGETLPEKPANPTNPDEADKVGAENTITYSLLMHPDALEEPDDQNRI

T2: recombinant soluble FcγRIIb (human, UniProt P31994 43-217)
T2 construct: extracellular domain; also called rsFcγRIIb
T2 sequence (looked up): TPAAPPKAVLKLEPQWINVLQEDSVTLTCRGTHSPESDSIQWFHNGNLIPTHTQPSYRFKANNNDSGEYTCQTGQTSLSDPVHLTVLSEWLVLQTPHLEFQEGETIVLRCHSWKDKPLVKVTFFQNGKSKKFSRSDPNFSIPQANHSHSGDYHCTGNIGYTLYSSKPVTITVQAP

T3: recombinant soluble FcγRIIa-Arg131 (human, UniProt P12318 34-217)
T3 construct: extracellular domain; Arg131 allelic form; also called rsFcγRIIa-R131
T3 sequence (looked up): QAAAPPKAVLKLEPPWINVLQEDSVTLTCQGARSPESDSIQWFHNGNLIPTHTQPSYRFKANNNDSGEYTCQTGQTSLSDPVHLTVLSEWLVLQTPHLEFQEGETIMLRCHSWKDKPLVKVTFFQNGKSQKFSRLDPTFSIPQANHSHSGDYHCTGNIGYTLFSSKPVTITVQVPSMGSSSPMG

B1: chimeric anti-TNP human IgG2-FLGG (antibody)
heavy: EVQLQESGPSLVKPSQTLSLTCSVTGDSITSGYWNWIRQVPGNKLEYMGFINYSGNTYYNPSLRSRISITRDTSKNQYFLHLNSVTTEDTATYYCARANWDVFAYWGQGTLVTVSAASTKGPSVFPLAPCSRSTSESTAALGCLVKDYFPEPVTVSWNSGALTSGVHTFPAVLQSSGLYSLSSVVTVPSSNFGTQTYTCNVDHKPSNTKVDKTVERKCCVECPPCPAPEFLGGPSVFLFPPKPKDTLMISRTPEVTCVVVDVSHEDPEVQFNWYVDGVEVHNAKTKPREEQFNSTFRVVSVLTVVHQDWLNGKEYKCKVSNKGLPAPIEKTISKTKGQPREPQVYTLPPSREEMTKNQVSLTCLVKGFYPSDIAVEWESNGQPENNYKTTPPMLDSDGSFFLYSKLTVDKSRWQQGNVFSCSVMHEALHNHYTQKSLSLSLGK
light: not shown
notes: The entry includes a leader; the C-terminal LGK may differ
B2: chimeric anti-TNP human IgG2-LLGG (antibody)
heavy: EVQLQESGPSLVKPSQTLSLTCSVTGDSITSGYWNWIRQVPGNKLEYMGFINYSGNTYYNPSLRSRISITRDTSKNQYFLHLNSVTTEDTATYYCARANWDVFAYWGQGTLVTVSAASTKGPSVFPLAPCSRSTSESTAALGCLVKDYFPEPVTVSWNSGALTSGVHTFPAVLQSSGLYSLSSVVTVPSSNFGTQTYTCNVDHKPSNTKVDKTVERKCCVECPPCPAPELLGGPSVFLFPPKPKDTLMISRTPEVTCVVVDVSHEDPEVQFNWYVDGVEVHNAKTKPREEQFNSTFRVVSVLTVVHQDWLNGKEYKCKVSNKGLPAPIEKTISKTKGQPREPQVYTLPPSREEMTKNQVSLTCLVKGFYPSDIAVEWESNGQPENNYKTTPPMLDSDGSFFLYSKLTVDKSRWQQGNVFSCSVMHEALHNHYTQKSLSLSLGK
light: not shown
notes: The entry includes a leader
B3: Anti-TNP mAb formatted as IgG2-FLGG-SELF mutant (antibody)
heavy: EVQLQESGPSLVKPSQTLSLTCSVTGDSITSGYWNWIRQVPGNKLEYMGFINYSGNTYYNPSLRSRISITRDTSKNQYFLHLNSVTTEDTATYYCARANWDVFAYWGQGTLVTVSAASTKGPSVFPLAPCSRSTSESTAALGCLVKDYFPEPVTVSWNSGALTSGVHTFPAVLQSSGLYSLSSVVTVPSSNFGTQTYTCNVDHKPSNTKVDKTVERKCCVECPPCPAPEFLGGPSVFLFPPKPKDTLMISRTPEVTCVVVDVEHEDPEVQFNWYVDGVEVHNAKTKPREEQFNSTFRVVSVLTVVHQDWLNGKEYKCKVSNKGFPAPIEKTISKTKGQPREPQVYTLPPSREEMTKNQVSLTCLVKGFYPSDIAVEWESNGQPENNYKTTPPMLDSDGSFFLYSKLTVDKSRWQQGNVFSCSVMHEALHNHYTQKSLSLSLGK
light: not shown
B4: Anti-TNP mAb formatted as IgG2-FEGG-SELF mutant (antibody)
heavy: EVQLQESGPSLVKPSQTLSLTCSVTGDSITSGYWNWIRQVPGNKLEYMGFINYSGNTYYNPSLRSRISITRDTSKNQYFLHLNSVTTEDTATYYCARANWDVFAYWGQGTLVTVSAASTKGPSVFPLAPCSRSTSESTAALGCLVKDYFPEPVTVSWNSGALTSGVHTFPAVLQSSGLYSLSSVVTVPSSNFGTQTYTCNVDHKPSNTKVDKTVERKCCVECPPCPAPEFEGGPSVFLFPPKPKDTLMISRTPEVTCVVVDVEHEDPEVQFNWYVDGVEVHNAKTKPREEQFNSTFRVVSVLTVVHQDWLNGKEYKCKVSNKGFPAPIEKTISKTKGQPREPQVYTLPPSREEMTKNQVSLTCLVKGFYPSDIAVEWESNGQPENNYKTTPPMLDSDGSFFLYSKLTVDKSRWQQGNVFSCSVMHEALHNHYTQKSLSLSLGK
light: not shown
B5: chimeric anti-TNP human IgG4-SELF (antibody)
heavy: EVQLQESGPSLVKPSQTLSLTCSVTGDSITSGYWNWIRQVPGNKLEYMGFINYSGNTYYNPSLRSRISITRDTSKNQYFLHLNSVTTEDTATYYCARANWDVFAYWGQGTLVTVSAASTKGPSVFPLAPCSRSTSESTAALGCLVKDYFPEPVTVSWNSGALTSGVHTFPAVLQSSGLYSLSSVVTVPSSSLGTKTYTCNVDHKPSNTKVDKRVESKYGPPCPSCPAPEFLGGPSVFLFPPKPKDTLMISRTPEVTCVVVDVEQEDPEVQFNWYVDGVEVHNAKTKPREEQFNSTYRVVSVLTVLHQDWLNGKEYKCKVSNKGFPSSIEKTISKAKGQPREPQVYTLPPSQEEMTKNQVSLTCLVKGFYPSDIAVEWESNGQPENNYKTTPPVLDSDGSFFLYSRLTVDKSRWQEGNVFSCSVMHEALHNHYTQKSLSLSLGK
light: not shown
B6: anti-TNP IgG2-SELF (antibody)
heavy: EVQLQESGPSLVKPSQTLSLTCSVTGDSITSGYWNWIRQVPGNKLEYMGFINYSGNTYYNPSLRSRISITRDTSKNQYFLHLNSVTTEDTATYYCARANWDVFAYWGQGTLVTVSAASTKGPSVFPLAPCSRSTSESTAALGCLVKDYFPEPVTVSWNSGALTSGVHTFPAVLQSSGLYSLSSVVTVPSSNFGTQTYTCNVDHKPSNTKVDKTVERKCCVECPPCPAPPVAGPSVFLFPPKPKDTLMISRTPEVTCVVVDVEHEDPEVQFNWYVDGVEVHNAKTKPREEQFNSTFRVVSVLTVVHQDWLNGKEYKCKVSNKGFPAPIEKTISKTKGQPREPQVYTLPPSREEMTKNQVSLTCLVKGFYPSDIAVEWESNGQPENNYKTTPPMLDSDGSFFLYSKLTVDKSRWQQGNVFSCSVMHEALHNHYTQKSLSLSLGK
light: not shown

Experiments:
[1] = molecular target: T1, human FcγRIIb expressed on the cell …; experiment: cell-based or functional assay
[2] = molecular target: T2, recombinant soluble FcγRIIb; experiment: BLI (Octet); anti-TNP IgG captured on TNP-BSA-biotin, rsFcγR in solution; global 1:1 Langmuir fit
Protocol: (§1) Affinity measurements of IgG:FcR interaction using Bio-Layer Interferometry (OCTET) TNP-BSA was reacted with the EZ-Link™ biotinylation reagent (ThermoFisher Scientific) according to the manufacturer's instructions. The resulting TNP-BSA-biotin (5 μg/ml, 30 sec) was captured to ˜0.8 nm on streptavidin BLI probes using an Octet Red96 (ForteBio; Molecular Devices LLC, San Jose, CA, United States of America) then loaded with anti-TNP IgG (4 μg/ml, 75 sec). A baseline was established (60 sec) followed by the association and dissociation (90s) of a concentration series (15 nM to 20 μM) of rsFcγRIIa-R131 or rsFcγRIIb. Regeneration after each initial reaction TNP-BSA-biotin capture and the subsequent binding cycles used 10 mM HCl.

[3] = molecular target: T4, human FcγRIIIa-F158 expressed on the cell surface (human, UniProt P08637 17-254); experiment: flow cytometry; immune complexes on IIA1.6 cells expressing the FcγR
T4 construct: whole, on cells; Co-expressed with the FcR common γ chain (FcRγ-EGFP)
Protocol: (§2) Antibody FcγR binding was measured using either immune complexes or monomeric IgG. Immune complexes were generated by incubating the anti-TNP antibodies (parental or mutant anti-TNP IgG) with TNP-BSA at a 2:1 ratio (40 μg/ml:20 μg/ml) for 30 minutes at 37° C. then 10 minutes at 4° C. […] The cells were washed twice, resuspended in […] PBS/0.5% BSA and 10,000 viable cells analysed in at least three experiments. Monomer IgG binding (MFI) were fitted to a single binding site model to determine binding affinity (KA). Similarly immune complex binding is reported as apparent affinity (K app).

[4] = molecular target: T5, human FcγRIIIa-V158 expressed on the cell surface (human, UniProt P08637 17-254); experiment: as above
T5 construct: whole, on cells; Co-expressed with the FcR common γ chain (FcRγ-EGFP)
Protocol: as §2

[5] = molecular target: T1, human FcγRIIb expressed on the cell …; experiment: flow cytometry; monomeric IgG on IIA1.6 cells expressing FcγRIIb, single site fit of MFI
Protocol: as §2
In an attempt to further improve FcγRIIb specificity, two residues in CH2 of the Fc domain were additionally modified (see Table 1). Particularly, two mutations S267E and L328F (SELF) which have been used in the IgG1 backbone (Chu S Y et al., Mol Immunol 45(15):3926-3933, 2008) were introduced into the IgG2- and IgG4-based mAbs, IgG2-FLGG, IgG2-FEGG and IgG4-FEGG, as well as the parental IgG4 antibody. The antibodies were then tested for specificity (see FIGS. 4-6) and inhibitory potency in allergen specific (FIG. 3) and anti-IgE BAT (FIG. 7). Several effects were apparent.

[6] = molecular target: T3, recombinant soluble FcγRIIa-Arg131; experiment: BLI (Octet); anti-TNP IgG captured on TNP-BSA-biotin, rsFcγR in solution; global 1:1 Langmuir fit
Protocol: as §1

[7] = molecular target: T6, human FcγRI expressed on the cell surface (human, UniProt P12314 16-374); experiment: flow cytometry; monomeric IgG on IIA1.6 cells expressing FcγRI
T6 construct: whole, on cells; Co-expressed with the FcR common γ chain
Protocol: as §2

T5 sequence (P08637 17-254 F176V): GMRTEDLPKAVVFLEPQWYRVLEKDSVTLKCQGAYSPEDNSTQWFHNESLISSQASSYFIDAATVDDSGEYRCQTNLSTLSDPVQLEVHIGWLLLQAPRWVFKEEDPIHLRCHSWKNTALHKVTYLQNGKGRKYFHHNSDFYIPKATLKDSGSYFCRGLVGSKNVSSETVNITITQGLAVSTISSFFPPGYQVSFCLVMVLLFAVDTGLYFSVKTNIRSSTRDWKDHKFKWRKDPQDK
T4 sequence (P08637 17-254): as the sequence (P08637 17-254 F176V) above, with V160F counted along it
T6 sequence (P12314 16-374): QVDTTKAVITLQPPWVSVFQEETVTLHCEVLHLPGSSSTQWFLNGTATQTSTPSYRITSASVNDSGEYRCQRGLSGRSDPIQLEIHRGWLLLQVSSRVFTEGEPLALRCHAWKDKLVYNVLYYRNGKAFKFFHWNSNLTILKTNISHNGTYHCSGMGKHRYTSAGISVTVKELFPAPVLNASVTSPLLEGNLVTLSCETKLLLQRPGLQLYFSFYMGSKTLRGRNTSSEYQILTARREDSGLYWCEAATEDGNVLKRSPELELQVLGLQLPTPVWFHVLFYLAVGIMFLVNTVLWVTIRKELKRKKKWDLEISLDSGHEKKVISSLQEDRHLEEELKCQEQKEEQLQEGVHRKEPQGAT

Row | Binder | % inhibition of Api m 1 induced basophil activation (washed blood BAT) [1] [%] | IC50 of inhibition of basophil activation (whole blood BAT) [1] [µg/mL] | Ka [2] [M⁻¹] | binding result [3] | binding result [4] | Ka [5] [M⁻¹] | Ka [6] [M⁻¹] | binding result [7]
1 | B1 | 85 | 1.6 | 830000 |  |  |  |  | 
2 | B2 | 81 |  | 800000 |  |  |  |  | 
3 | B3 |  | 0.24 | 1.03e+08 | no binding | no binding | 8.9e+07 | 6.3e+08 | 
4 | B4 |  | 0.38 | 2.9e+07 |  |  | 3.2e+07 | 1.88e+08 | no binding
5 | B5 |  | 1.1 |  |  |  |  |  | 
6 | B6 |  |  | 3.4e+07 |  |  |  | 9.1e+07 | 

From US20240018269A1 (MACFARLANE BURNET INSTITUTE FOR MEDICAL RESEARCH AND PUBLIC …, published 2024)
